Measured values from the supplement of paper PMC9170038.

Test system: MS2 coat protein
Assay: apparent KD of MS2 coat protein; designed switch direction (-1 OFF switch, 1 ON switch): 1; higher = weaker reporter binding
In short: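 Apparent KD, taken as the median over clusters for each design, was obtained by curve-fitting normalised cluster fluorescence. Designed RNA switches had been transcribed on Illumina chips by stalled E. coli RNA polymerase and titrated with SNAP-549-labelled MS2 coat protein, doubling from 0.7 or 1.5 nM to 3 µM.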

[1] = Eterna round: R95, input ligand: FMN 200 uM
[2] = Eterna round: R95, input ligand: microRNA oligo, concentration not stated
[3] = Eterna round: R95, input ligand: none
[4] = input ligand: microRNA oligo, concentration not stated

Sequence | apparent KD of MS2 coat protein [1] [µM] | apparent KD of MS2 coat protein [2] [µM] | apparent KD of MS2 coat protein [3] [µM] | apparent KD of MS2 coat protein (input ligand: FMN 200 uM) [µM] | apparent KD of MS2 coat protein [4] [µM] | apparent KD of MS2 coat protein (input ligand: none) [µM]
GGAGCCGGCACUGAGGAUAUUCGUAUUAAAACAUGAGGAUCACCCAUGUAGGCCAGAAGGCCUUGGGAGAAGGCAGGUCGGCCCG [Bibimoar - 5] (puzzle: Same State 2) | 0.0125 | 0.0339 | 0.0464 | – | – | –
GGAGCCGGCCUAGGAUAUUUCAUAAAACAACAUGAGGAUCACCCAUGUAGGCCAGAAGGCCUUGGGAAGAAGGAGGUCGGCUCC [Loop Effect - C28] (Eterna round: R96, puzzle: Same State NG 2) | – | – | – | 0.0102 | 0.0197 | 0.0284
GGAGCCGGCCUAGGAUAUUUCAUACAAAAACAUGAGGAUCACCCAUGUAGGCCAGAAGGCCUUGGGAAGAAGGAGGUCGGCUCC [Loop Effect - C25] (Eterna round: R96, puzzle: Same State NG 2) | – | – | – | 0.0145 | 0.0169 | 0.0342
GGAGCCGGCCUAGGAUAUUUCAUAUAAAUACAUGAGGAUCACCCAUGUAGGCCAGAAGGCCUUGGGAAGAAGGAGGUCGGCUCC [Loop Effect - U25,U29] (Eterna round: R96, puzzle: Same State NG 2) | – | – | – | 0.013 | 0.0204 | 0.0315
GGAGCCGGCCUAGGAUAUUUCAUUAAUAAACAUGAGGAUCACCCAUGUAGGCCAGAAGGCCUUGGGAAGAAGGAGGUCGGCUCC [Loop Effect - U24,U27] (Eterna round: R96, puzzle: Same State NG 2) | – | – | – | 0.0212 | 0.0245 | 0.0377
GGAGCCGGUACUGAGGAUAUUCAUUUUAAAACAUGAGGAUCACCCAUGUAGGCCAGAAGGCCUUGGGAGAAGGCAGACCAGCUCG [Atgexeedri - 6] (puzzle: Same State 2) | 0.0209 | 0.217 | 0.369 | – | – | –
GGAGCCGGUACUGAGGAUAUUCGUAUUAAAACAUGAGGAUCACCCAUGUAGGCCAGAAGGCCUUGGGAGAAGGCAGACCAGCUCG [Atgexeedri - 5] (puzzle: Same State 2) | 0.0143 | 0.026 | 0.0405 | – | – | –
GGAGCCUGCACUGAGGAUAUUCAUAGUGUAACAUGAGGAUCACCCAUGUGUCGCCGUAGCGACUGGGAGAAGGCAGUGCGGCUCG [JL-ss2-3.06 ViennaUCT mod] (puzzle: Same State 2) | 0.0384 | 0.18 | 0.325 | – | – | –
GGAGCCUGCACUGAGGAUAUUCAUAUUUAAACAUGAGGAUCACCCAUGUAGGCCAGAAGGCCUUGGGAGAAGGCAGGUCGGCUCG [salish99_ss2_r3_083] (puzzle: Same State 2) | 0.0353 | 0.372 | 0.78 | – | – | –
GGAGGACAUGAGGAUCACCCAUGUGGAUGAUCGCUAGGAUAUGCGUAAAGGAGGAGUGGUGCAGAAGGAGUGGGAU [JR_SS1_Sub050] (puzzle: Same State 1) | – | 0.261 | – | – | – | –
GGAGGAUGAGCGUAGGAUAUAGGAGGAGUGACAUGAGGAUCACCCAUGUGGUAGGAGGGAGGGUACUAGAAGGACGAGGAAGAGG [JR_SS2_Sub070] (puzzle: Same State 2) | 0.0546 | 0.0645 | 0.0745 | – | – | –
GGCACAGCGUGAGGAUAUCGGUACGCACGUAGUCGAGAAGGUACCUGAAAUGGUACACAUGAGGAUCACCCAUGUGACUGGGCA [Eternabot solution 14] (Eterna round: R96, puzzle: Same State NG 1) | – | – | – | 0.0407 | 0.0271 | 0.0416
GGCAGGUGCAGGCUUGCUUGCACCUGGAAACAUGAGGAUCACCCAUGUUUGGGACAAGCUUUGCUCUUCGUCUUUUC [JL ViennaUCT Isusreraar mod 5] (puzzle: Sensor for hsa-mir-208a) | 0.0437 | 0.0551 | 0.0542 | – | – | –
GGCCUCUGUCAAGGAUAUGCUACCGUUUCGGUAGCAGAAGGUGAUCACAUGAGGAUCACCCAUGUUUAGGCCCUCUGGCCCGCC (Eterna round: R96, puzzle: Same State NG 1) | – | – | – | 0.114 | 0.33 | 0.138
GGCCUCUGUCAAGGAUAUGCUACCGUUUCGGUAGCAGAAGGUGAUCACAUGCGGGUCACCCAUGUUUAGGCCCUCUGGCCCGCC (Eterna round: R96, puzzle: Same State NG 1) | – | – | – | 0.0191 | 0.0102 | 0.0186
GGCUGCAAUUAUGAGGAUAUGUUCGGAUGAACAUGAGGAUCACCCAUGUGGCGAUAGCUAUCUGUGCAGAAGGUGUAGUGGUAGC [Edlexete] (Eterna round: R96, puzzle: Same State 2) | – | – | – | 0.0579 | 0.0907 | 0.186

Sequence | apparent KD of MS2 coat protein [1] [µM] | apparent KD of MS2 coat protein [2] [µM] | apparent KD of MS2 coat protein [3] [µM] | apparent KD of MS2 coat protein (input ligand: FMN 200 uM) [µM] | apparent KD of MS2 coat protein [4] [µM] | apparent KD of MS2 coat protein (input ligand: none) [µM]
GGGAAGAGGGACAAGGAUAUGUCAAAAGAGACAUGAGGAUCACCCAUGUGGAGGUUGGAGCAGAGACAGAAGGUGUACGGAGAGA [JR_SS2_Sub009] (puzzle: Same State 2) | 0.0697 | 0.063 | 0.152 | – | – | –
GGGCCAGCCUGUGCUGGGCUUUAGCAUGCACAUGAGGAUCACCCAUGUCGUGUACAUGCUUUUUGCUCGUCUUUAAA [Photon Torp-08] (puzzle: Sensor for hsa-mir-208a) | 0.0802 | 0.0174 | 0.0841 | – | – | –
GGGCCAGCUUUUGCUGGGCCUUCGCUUGCACAUGAGGAUCACCCAUGUCGUGUACACGCUUCCUGCCCGUCUUUUUU [Photon Torp-18] (puzzle: Sensor for hsa-mir-208a) | 0.0212 | 0.0136 | 0.0218 | – | – | –
GGUAAACAUGAGGAUCACCCAUGUAAUAUAAUGGGAGGAUAUCUGAAUUAAUUAAAUUAAGGAGAAGGCCUAAUGU [Mat - Same State 1 - Mod of Eli - D50] (puzzle: Same State 1) | 0.0655 | 0.462 | 0.41 | – | – | –
GGUAAGAAUUAAGGAUAUUGAAUACAUAUGUUUAACAUGAGGAUCACCCAUGUGGGUUGCGGUGUCGAGAAGGUAAAUUAAUAG [Mat - same State NG 2 - JL mod - D100] (Eterna round: R96, puzzle: Same State NG 2) | – | – | – | 0.262 | 0.166 | 0.305
GGUAUCGACACAGGAUAUGCUAUCCUUUGGGUAGCAGAAGGGUGAACAUGAGGAUCACCCAUGUAGGUGCCAGGGCGUGAGCCC [JL SSNG1 1.79] (Eterna round: R96, puzzle: Same State NG 1) | – | – | – | 0.368 | 0.0941 | 0.787
GGUAUCGGCACAGGAUAUGCUAUCCUUUGGGUAGCAGAAGGGUGGACAUGAGGAUCACCCAUGUGGGUGCCAGGGCGUGAGCCC [JL SSNG1 1.85] (Eterna round: R96, puzzle: Same State NG 1) | – | – | – | 0.912 | 0.363 | 0.907
GGUCCAGCCUGAGCUGGACAAAAGCAUGUACAUGAGGAUCACCCAUGUCAUGUACAAGCUUUUUGCUCGUCAUAAAU [Mat - hsa-mir-208a - 96] (Eterna round: R96, puzzle: Sensor for hsa-mir-208a) | – | – | – | 0.573 | 0.0163 | 0.435
GGUCCAGCCUGAGCUGGACAAAAGCAUGUACAUGAGGAUCACCCAUGUCAUGUACAAGCUUUUUGCUCGUCAUAAAU [Mat - hsa-mir-208a - 96] (puzzle: Sensor for hsa-mir-208a) | 0.702 | 0.0131 | 0.668 | – | – | –
GGUCCAGCCUGAGCUGGACCACAGCAUGUACAUGAGGAUCACCCAUGUCAUGUACAAGCUUUUUGUUUAAAAUAAAA [Sensorship 13 - Jieux - Sensor for hsa-mir-208a] (puzzle: Sensor for hsa-mir-208a) | 0.261 | 0.0305 | 0.209 | – | – | –
GGUCGGACUCAACAUGAGGAUCACCCAUGUGCGGAAACGCCAUAGGAUAUCUGUCCGAAAAGGUCAGAGAAGGGUGAACCGACC [Fiskers NG3ss - 66] (Eterna round: R96, puzzle: Same State NG 3) | – | – | – | 0.435 | 0.263 | 0.471
GGUGAGAGAGUCAAGGAUAUGAAAGGAGAGACAUGAGGAUCACCCAUGUAAGAGAGAGAGGAGAGUUAGAAGGUGAAGAGAGUGG [Altered State 2-24 - Jieux - Same State 2] (puzzle: Same State 2) | 0.0427 | 0.0395 | 0.0647 | – | – | –
GGUGCCAAAUAAGCCUACAUGAGGAUCACCCAUGUAUGUAGGCAGGAUAUCGUUUGCAAAGCAAACGAGAAGGGCCUAGGCACC [Mat - Same State NG 3 - JL Mod - D62] (Eterna round: R96, puzzle: Same State NG 3) | – | – | – | 0.0191 | 0.0185 | 0.0352
GGUGCCAAAUAAGCCUACAUGAGGAUCACCCAUGUAUGUAGGUAGGAUAUCGUAUGCAAAGCAUACGAGAAGGGCCUAGGCACC [Mat - Same State NG 3 - JL Mod - D60] (Eterna round: R96, puzzle: Same State NG 3) | – | – | – | 0.0181 | 0.0373 | 0.0607
GGUGCCAAUAAAGCCUACAUGAGGAUCACCCAUGUAUGUAGGCAGGAUAUCGUUUGCUUUGCAAACGAGAAGGGCCUAGGCACC [JL SSNG3 1.21] (Eterna round: R96, puzzle: Same State NG 3) | – | – | – | 0.0163 | 0.0243 | 0.0298
